Results published in US20220054419A1.

What was measured:
Assay in all cases: cell-based or functional assay
[1] = biological target: hemagglutinin (HA) of A/Beijing/262/95 (H1N1) on pseudotyped lentivirus (Influenza virus A/Beijing/262/95 (H1N1))
[2] = biological target: hemagglutinin (HA) of A/Fort Monmouth/1/47 (H1N1) on pseudotyped lentivirus (Influenza virus A/Fort Monmouth/1/47 (H1N1)) (UniProt A4U7A6)
[3] = biological target: hemagglutinin (HA) of A/Hong Kong/117/77 (H1N1) on pseudotyped lentivirus (Influenza virus A/Hong Kong/117/77 (H1N1)) (UniProt P18875)
[4] = biological target: hemagglutinin (HA) of A/Iowa/43 (H1N1) on pseudotyped lentivirus (Influenza virus A/Iowa/43 (H1N1)) (UniProt A4GCK8)
[5] = biological target: hemagglutinin (HA) of A/New Caledonia/20/99 (H1N1) on pseudotyped lentivirus (Influenza virus A/New Caledonia/20/1999 (H1N1)) (UniProt Q289M7)
[6] = biological target: hemagglutinin (HA) of A/New Jersey/76 (H1N1) on pseudotyped lentivirus (Influenza virus A/New Jersey/76 (H1N1))
[7] = biological target: hemagglutinin (HA) of A/New York/146/00 (H1N1) on pseudotyped lentivirus (Influenza virus A/New York/146/00 (H1N1))
[8] = biological target: hemagglutinin (HA) of A/New York/653/96 (H1N1) on pseudotyped lentivirus (Influenza virus A/New York/653/96 (H1N1))
[9] = biological target: hemagglutinin (HA) of A/New York/8/06 (H1N1) on pseudotyped lentivirus (Influenza virus A/New York/8/06 (H1N1))
[10] = biological target: hemagglutinin (HA) of A/Puerto Rico/8/34 (H1N1) on pseudotyped lentivirus (Influenza virus A/Puerto Rico/8/34 (H1N1)) (UniProt P03452)
[11] = biological target: hemagglutinin (HA) of A/Singapore/6/86 (H1N1) on pseudotyped lentivirus (Influenza virus A/Singapore/6/86 (H1N1)) (UniProt A3DRP0)
[12] = biological target: hemagglutinin (HA) of A/Solomon Islands/3/06 (H1N1) on pseudotyped lentivirus (Influenza virus A/Solomon Islands/3/06 (H1N1))
[13] = biological target: hemagglutinin (HA) of A/South Carolina/1/18 (H1N1) on pseudotyped lentivirus (Influenza virus A/South Carolina/1/18 (H1N1)) (UniProt Q9WFX3)

monoclonal antibody 441D6
Neutralization IC50, lentivirus pseudotype neutralization assay [1]: 0.07 µg/mL
Neutralization IC50, lentivirus pseudotype neutralization assay [2]: 0.02 µg/mL
Neutralization IC50, lentivirus pseudotype neutralization assay [3]: 0.04 µg/mL
Neutralization IC50, lentivirus pseudotype neutralization assay [4]: 11.1 µg/mL
Neutralization IC50, lentivirus pseudotype neutralization assay [5]: 0.04 µg/mL
Neutralization IC50, lentivirus pseudotype neutralization assay [6]: 0.03 µg/mL
Neutralization IC50, lentivirus pseudotype neutralization assay [7]: 0.01 µg/mL
Neutralization IC50, lentivirus pseudotype neutralization assay [8]: 0.02 µg/mL
Neutralization IC50, lentivirus pseudotype neutralization assay [9]: 0.14 µg/mL
Neutralization IC50, lentivirus pseudotype neutralization assay [10]: 0.08 µg/mL
Neutralization IC50, lentivirus pseudotype neutralization assay [11]: 0.01 µg/mL
Neutralization IC50, lentivirus pseudotype neutralization assay [12]: 0.29 µg/mL
Neutralization IC50, lentivirus pseudotype neutralization assay [13]: 0.04 µg/mL

monoclonal antibody CH65 (anti-receptor binding site of HA)
Neutralization IC50, lentivirus pseudotype neutralization assay [1]: 0.01 µg/mL
Neutralization IC50, lentivirus pseudotype neutralization assay [2]: 5.86 µg/mL
Neutralization IC50, lentivirus pseudotype neutralization assay [3]: 0.97 µg/mL
Neutralization IC50, lentivirus pseudotype neutralization assay [4]: > 50 µg/mL
Neutralization IC50, lentivirus pseudotype neutralization assay [5]: 0.01 µg/mL
Neutralization IC50, lentivirus pseudotype neutralization assay [6]: > 25 µg/mL
Neutralization IC50, lentivirus pseudotype neutralization assay [7]: 0.03 µg/mL
Neutralization IC50, lentivirus pseudotype neutralization assay [8]: < 0.005 µg/mL
Neutralization IC50, lentivirus pseudotype neutralization assay [9]: 0.02 µg/mL
Neutralization IC50, lentivirus pseudotype neutralization assay [10]: 0.44 µg/mL
Neutralization IC50, lentivirus pseudotype neutralization assay [11]: < 0.005 µg/mL
Neutralization IC50, lentivirus pseudotype neutralization assay [12]: 1.3 µg/mL
Neutralization IC50, lentivirus pseudotype neutralization assay [13]: 0.57 µg/mL

monoclonal antibody FI6v3 (anti-HA stem region)
Neutralization IC50, lentivirus pseudotype neutralization assay [1]: 1.01 µg/mL
Neutralization IC50, lentivirus pseudotype neutralization assay [2]: 22.2 µg/mL
Neutralization IC50, lentivirus pseudotype neutralization assay [3]: 0.09 µg/mL
Neutralization IC50, lentivirus pseudotype neutralization assay [4]: 3.4 µg/mL
Neutralization IC50, lentivirus pseudotype neutralization assay [5]: 0.09 µg/mL
Neutralization IC50, lentivirus pseudotype neutralization assay [6]: 0.36 µg/mL
Neutralization IC50, lentivirus pseudotype neutralization assay [7]: 0.08 µg/mL
Neutralization IC50, lentivirus pseudotype neutralization assay [8]: 0.15 µg/mL
Neutralization IC50, lentivirus pseudotype neutralization assay [9]: > 25 µg/mL
Neutralization IC50, lentivirus pseudotype neutralization assay [10]: 0.97 µg/mL
Neutralization IC50, lentivirus pseudotype neutralization assay [11]: 0.01 µg/mL
Neutralization IC50, lentivirus pseudotype neutralization assay [12]: 0.94 µg/mL
Neutralization IC50, lentivirus pseudotype neutralization assay [13]: 4.4 µg/mL
